PMC7615972
pKd: −log10 of the molar value.

Key:
Assay in all cases: SPR; mouse CACHD1ECD as analyte; FZD CRDs or LRP6 fragments immobilised; equilibrium dissociation constants
[1] = molecular target: human FZD8 cysteine-rich domain (FZD8CRD) (human) (UniProt Q9H461)
[2] = molecular target: human FZD7 cysteine-rich domain (FZD7CRD) (human) (UniProt O75084)
[3] = molecular target: human LRP6 membrane distal fragment (LRP6_(P1E1P2E2)) (human) (UniProt O75581)
Chain of human LRP6 membrane distal fragment (LRP6_(P1E1P2E2)) (human) (O75581 20-1613): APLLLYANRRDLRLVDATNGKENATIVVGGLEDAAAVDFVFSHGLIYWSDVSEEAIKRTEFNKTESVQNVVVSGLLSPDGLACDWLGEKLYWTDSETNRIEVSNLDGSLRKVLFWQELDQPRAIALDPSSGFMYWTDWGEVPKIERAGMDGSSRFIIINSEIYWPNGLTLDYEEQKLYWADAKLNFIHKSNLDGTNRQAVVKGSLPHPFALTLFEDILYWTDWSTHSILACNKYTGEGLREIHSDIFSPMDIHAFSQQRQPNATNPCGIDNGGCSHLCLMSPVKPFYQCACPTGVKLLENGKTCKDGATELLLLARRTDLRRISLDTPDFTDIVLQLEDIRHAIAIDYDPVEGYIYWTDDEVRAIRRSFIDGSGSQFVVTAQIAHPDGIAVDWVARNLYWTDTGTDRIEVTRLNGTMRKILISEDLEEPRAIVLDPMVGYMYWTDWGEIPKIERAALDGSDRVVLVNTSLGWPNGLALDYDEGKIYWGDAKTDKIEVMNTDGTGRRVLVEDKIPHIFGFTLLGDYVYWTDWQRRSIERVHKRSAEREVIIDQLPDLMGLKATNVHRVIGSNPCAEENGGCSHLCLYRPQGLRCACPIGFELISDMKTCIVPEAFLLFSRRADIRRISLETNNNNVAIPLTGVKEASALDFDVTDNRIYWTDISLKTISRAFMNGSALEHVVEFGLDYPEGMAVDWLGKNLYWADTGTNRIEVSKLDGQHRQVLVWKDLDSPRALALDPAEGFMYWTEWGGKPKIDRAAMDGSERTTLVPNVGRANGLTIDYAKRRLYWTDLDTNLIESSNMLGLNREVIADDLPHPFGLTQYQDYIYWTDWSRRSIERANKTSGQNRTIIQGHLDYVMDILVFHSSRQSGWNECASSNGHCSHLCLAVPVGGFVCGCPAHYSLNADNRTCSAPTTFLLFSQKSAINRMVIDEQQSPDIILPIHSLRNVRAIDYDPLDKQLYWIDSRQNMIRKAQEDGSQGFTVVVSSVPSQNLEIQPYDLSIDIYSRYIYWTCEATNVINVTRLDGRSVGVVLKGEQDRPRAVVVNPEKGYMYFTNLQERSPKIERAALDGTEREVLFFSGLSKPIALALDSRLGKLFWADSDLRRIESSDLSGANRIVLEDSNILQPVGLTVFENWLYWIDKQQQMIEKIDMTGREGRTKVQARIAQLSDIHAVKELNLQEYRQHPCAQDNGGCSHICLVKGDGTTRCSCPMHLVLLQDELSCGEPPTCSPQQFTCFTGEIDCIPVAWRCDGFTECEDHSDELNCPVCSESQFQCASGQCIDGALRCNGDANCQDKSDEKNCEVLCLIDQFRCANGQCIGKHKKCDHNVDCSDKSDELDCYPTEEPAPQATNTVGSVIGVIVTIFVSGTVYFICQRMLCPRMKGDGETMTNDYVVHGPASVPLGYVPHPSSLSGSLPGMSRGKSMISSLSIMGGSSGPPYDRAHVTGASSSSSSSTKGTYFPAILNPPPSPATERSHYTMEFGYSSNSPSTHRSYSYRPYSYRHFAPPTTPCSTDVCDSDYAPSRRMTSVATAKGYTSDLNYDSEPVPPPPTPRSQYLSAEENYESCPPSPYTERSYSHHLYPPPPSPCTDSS

Chain of purified mouse CACHD1 extracellular domain (CACHD1ECD) (Q6PDJ1 50-1109): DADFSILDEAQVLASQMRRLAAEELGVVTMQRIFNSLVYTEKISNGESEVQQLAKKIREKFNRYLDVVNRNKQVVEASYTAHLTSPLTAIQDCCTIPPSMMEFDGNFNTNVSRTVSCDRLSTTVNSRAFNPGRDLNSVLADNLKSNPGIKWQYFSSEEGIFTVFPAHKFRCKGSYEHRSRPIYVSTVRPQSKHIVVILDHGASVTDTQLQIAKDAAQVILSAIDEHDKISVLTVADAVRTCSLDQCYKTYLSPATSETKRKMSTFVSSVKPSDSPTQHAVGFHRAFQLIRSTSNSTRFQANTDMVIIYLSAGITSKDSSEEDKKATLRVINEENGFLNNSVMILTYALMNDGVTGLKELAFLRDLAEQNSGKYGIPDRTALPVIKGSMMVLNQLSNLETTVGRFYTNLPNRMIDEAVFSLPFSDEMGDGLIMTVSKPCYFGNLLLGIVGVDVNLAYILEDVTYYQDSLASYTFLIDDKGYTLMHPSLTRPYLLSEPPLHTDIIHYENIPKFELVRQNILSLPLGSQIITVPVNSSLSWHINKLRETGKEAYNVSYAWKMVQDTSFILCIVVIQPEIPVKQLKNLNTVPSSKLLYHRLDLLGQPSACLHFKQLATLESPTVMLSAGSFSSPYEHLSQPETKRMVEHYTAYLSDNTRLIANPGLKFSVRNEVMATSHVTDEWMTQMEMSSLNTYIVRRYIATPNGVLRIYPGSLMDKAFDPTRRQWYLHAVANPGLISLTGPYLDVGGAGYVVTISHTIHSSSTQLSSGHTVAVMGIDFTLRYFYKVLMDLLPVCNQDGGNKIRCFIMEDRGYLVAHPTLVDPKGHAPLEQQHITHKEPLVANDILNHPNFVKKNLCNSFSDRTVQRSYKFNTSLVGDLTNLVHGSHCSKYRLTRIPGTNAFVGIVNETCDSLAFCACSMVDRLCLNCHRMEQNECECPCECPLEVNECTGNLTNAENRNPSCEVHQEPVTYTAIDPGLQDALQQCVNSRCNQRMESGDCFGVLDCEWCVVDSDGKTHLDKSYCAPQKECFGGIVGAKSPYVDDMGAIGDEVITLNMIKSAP
Chain of human FZD8 cysteine-rich domain (FZD8CRD) (human) (Q9H461 28-694): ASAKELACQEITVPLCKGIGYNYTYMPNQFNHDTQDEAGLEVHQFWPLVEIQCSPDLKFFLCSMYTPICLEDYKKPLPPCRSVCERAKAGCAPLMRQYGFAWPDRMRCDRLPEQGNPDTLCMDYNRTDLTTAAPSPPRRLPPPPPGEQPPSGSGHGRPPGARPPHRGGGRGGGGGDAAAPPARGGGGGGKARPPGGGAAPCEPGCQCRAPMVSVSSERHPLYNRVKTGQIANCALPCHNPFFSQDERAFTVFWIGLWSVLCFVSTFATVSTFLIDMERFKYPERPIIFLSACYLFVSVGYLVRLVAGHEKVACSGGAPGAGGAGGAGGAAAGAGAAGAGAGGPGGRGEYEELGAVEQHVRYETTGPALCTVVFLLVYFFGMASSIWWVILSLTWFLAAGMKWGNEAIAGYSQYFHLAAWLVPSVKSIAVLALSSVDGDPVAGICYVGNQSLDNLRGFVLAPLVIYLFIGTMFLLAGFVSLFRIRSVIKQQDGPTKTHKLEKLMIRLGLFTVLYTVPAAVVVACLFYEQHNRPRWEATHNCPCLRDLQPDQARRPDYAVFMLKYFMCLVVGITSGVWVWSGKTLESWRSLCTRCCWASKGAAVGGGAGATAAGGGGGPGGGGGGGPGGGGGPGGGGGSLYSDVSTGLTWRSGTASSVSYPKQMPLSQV

- pKd [1]: 6.02
- pKd [2]: 4.85
- pKd [3]: 5.23
Substance: purified mouse CACHD1 extracellular domain (CACHD1ECD) (from UniProt Q6PDJ1 50-1109) (domain or fragment)
